Experimental data from publication PMC9482650, “Quantitative fragmentomics allow affinity mapping of interactomes” (Nature Communications, 2022).

Tests used:
Assay in all cases: holdup assay
Design in all cases: key: below the threshold = too weak to quantify, mostly under pKd 3.1 to 4
[1] = biological target: T1, PDZD7_3, Q9H5P4
T1 sequence (Q9H5P4 857-944, limits assumed, looked up): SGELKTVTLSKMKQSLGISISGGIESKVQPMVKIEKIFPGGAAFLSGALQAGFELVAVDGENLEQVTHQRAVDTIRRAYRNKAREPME

[2] = biological target: MAGI2_5, Q86UL8
[3] = biological target: LIMK2, P53671
[4] = biological target: T2, APBA3_1, O96018
T2 sequence (O96018 389-490, limits assumed, looked up): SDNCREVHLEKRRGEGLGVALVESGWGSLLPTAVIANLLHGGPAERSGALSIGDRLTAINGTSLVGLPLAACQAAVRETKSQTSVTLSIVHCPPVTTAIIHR

[5] = biological target: T3, RAPGEF6, Q8TEU7
T3 sequence (Q8TEU7 525-625, limits assumed, looked up): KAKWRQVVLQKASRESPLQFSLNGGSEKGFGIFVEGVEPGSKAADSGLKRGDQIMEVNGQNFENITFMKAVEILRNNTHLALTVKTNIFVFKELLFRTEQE

[6] = biological target: T4, HTRA4, P83105
T4 sequence (P83105 378-476, limits assumed, looked up): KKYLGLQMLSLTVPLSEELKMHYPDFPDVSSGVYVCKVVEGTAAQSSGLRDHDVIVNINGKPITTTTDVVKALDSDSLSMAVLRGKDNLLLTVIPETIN

[7] = biological target: T5, MPDZ_12, O75970
T5 sequence (O75970 1857-1958, limits assumed, looked up): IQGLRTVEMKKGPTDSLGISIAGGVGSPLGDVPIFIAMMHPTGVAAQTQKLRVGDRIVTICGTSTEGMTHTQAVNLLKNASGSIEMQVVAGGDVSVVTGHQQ

[8] = biological target: T6, GRIP1_5, Q9Y3R0
T6 sequence (Q9Y3R0 568-668, limits assumed, looked up): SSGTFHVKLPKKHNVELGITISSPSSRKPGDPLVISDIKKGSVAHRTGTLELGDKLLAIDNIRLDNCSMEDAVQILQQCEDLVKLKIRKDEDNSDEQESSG

[9] = biological target: T7, SHANK1, Q9Y566
T7 sequence (Q9Y566 658-767, limits assumed, looked up): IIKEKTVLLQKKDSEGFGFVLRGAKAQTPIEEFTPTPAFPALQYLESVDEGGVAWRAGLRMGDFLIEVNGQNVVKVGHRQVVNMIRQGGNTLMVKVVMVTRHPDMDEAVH

[10] = biological target: Inadl_1, Q8NI35
[11] = biological target: PTPN3, P26045
[12] = biological target: DLG4_3, P78352
[13] = biological target: Inadl_3, Q8NI35
[14] = biological target: T8, APBA2_2, Q99767
T8 sequence (Q99767 654-744, limits assumed, looked up): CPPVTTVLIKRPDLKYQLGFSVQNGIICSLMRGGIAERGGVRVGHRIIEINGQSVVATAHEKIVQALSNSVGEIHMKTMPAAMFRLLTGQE

[15] = biological target: T9, NHERF3_4, Q5T2W1
T9 sequence (Q5T2W1 373-468, limits assumed, looked up): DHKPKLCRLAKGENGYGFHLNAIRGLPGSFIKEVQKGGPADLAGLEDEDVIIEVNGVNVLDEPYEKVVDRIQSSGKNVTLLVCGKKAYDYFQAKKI

[16] = biological target: DLG4_2, P78352
[17] = biological target: DLG1_1, Q12959
[18] = biological target: PDZRN4_1, Q6ZMN7
[19] = biological target: FRMPD4, Q14CM0
[20] = biological target: Inadl_9, Q8NI35
[21] = biological target: MAGI2_6, Q86UL8
[22] = biological target: T10, PTPN13_1, Q12923
T10 sequence (Q12923 1088-1188, limits assumed, looked up): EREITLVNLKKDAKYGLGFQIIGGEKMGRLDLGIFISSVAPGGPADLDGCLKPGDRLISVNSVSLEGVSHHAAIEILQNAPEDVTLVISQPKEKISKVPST

[23] = biological target: LNX1_1, Q8TBB1
[24] = biological target: AHNAK1, Q09666
[25] = biological target: LNX1_2, Q8TBB1
[26] = biological target: T11, LNX2_2, Q8N448
T11 sequence (Q8N448 334-432, limits assumed, looked up): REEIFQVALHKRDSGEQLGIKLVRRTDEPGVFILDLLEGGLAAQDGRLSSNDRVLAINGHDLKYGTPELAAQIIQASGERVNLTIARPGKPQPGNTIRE

[27] = biological target: DLG2_2, Q15700
[28] = plain residues with an end cap or a label only (N-terminal biotin on a linker: ado-ado)
[29] = plain residues with an end cap or a label only (N-terminal biotin on a linker: (peg)3)

DLG2_2, Q15700, sequence (Q15700 189-283): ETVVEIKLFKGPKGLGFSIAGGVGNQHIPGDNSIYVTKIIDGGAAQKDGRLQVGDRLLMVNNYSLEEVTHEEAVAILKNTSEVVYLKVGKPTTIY
MAGI2_5, Q86UL8, sequence (Q86UL8 915-1017): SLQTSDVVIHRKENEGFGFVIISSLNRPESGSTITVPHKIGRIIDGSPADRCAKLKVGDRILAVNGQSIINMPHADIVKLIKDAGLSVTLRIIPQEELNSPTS
DLG4_2, P78352, sequence (P78352 155-259): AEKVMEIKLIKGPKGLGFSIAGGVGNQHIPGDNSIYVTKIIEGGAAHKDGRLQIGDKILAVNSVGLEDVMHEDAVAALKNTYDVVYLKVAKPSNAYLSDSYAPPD
DLG4_3, P78352, sequence (P78352 306-403): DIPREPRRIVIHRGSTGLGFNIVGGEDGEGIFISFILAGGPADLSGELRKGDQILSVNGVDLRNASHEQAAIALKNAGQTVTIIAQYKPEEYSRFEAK
LIMK2, P53671, sequence (P53671 143-248): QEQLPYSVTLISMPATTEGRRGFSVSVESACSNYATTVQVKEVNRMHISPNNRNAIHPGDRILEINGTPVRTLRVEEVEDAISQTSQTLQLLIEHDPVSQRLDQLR
AHNAK1, Q09666, sequence (Q09666 4-100): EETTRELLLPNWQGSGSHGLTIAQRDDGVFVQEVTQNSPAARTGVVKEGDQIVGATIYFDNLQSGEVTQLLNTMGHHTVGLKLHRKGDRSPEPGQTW
Inadl_1, Q8NI35, sequence (Q8NI35 113-229): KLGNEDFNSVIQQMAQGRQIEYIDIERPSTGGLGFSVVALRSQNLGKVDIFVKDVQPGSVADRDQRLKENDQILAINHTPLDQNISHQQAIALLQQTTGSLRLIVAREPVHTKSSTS
FRMPD4, Q14CM0, sequence (Q14CM0 67-160): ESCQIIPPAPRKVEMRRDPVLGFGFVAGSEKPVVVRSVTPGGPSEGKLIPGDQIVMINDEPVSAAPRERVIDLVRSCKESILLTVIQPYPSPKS
LNX1_1, Q8TBB1, sequence (Q8TBB1 261-371): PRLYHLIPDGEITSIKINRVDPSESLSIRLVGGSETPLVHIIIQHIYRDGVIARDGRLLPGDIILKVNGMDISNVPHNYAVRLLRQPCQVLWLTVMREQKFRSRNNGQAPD
PDZRN4_1, Q6ZMN7, sequence (Q6ZMN7 213-318): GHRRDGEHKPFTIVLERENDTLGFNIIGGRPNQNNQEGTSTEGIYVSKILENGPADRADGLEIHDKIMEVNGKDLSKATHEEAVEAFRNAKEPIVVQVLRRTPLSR
PTPN3, P26045, sequence (P26045 505-587): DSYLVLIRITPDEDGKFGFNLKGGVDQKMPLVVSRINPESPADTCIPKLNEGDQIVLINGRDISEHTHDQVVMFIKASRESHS
Inadl_9, Q8NI35, sequence (Q8NI35 1530-1615): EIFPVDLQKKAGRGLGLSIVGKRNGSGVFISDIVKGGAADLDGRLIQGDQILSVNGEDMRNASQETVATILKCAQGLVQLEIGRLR
MAGI2_6, Q86UL8, sequence (Q86UL8 1141-1229): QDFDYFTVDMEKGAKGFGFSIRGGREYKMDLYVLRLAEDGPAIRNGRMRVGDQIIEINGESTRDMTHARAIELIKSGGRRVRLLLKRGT
Inadl_3, Q8NI35, sequence (Q8NI35 359-469): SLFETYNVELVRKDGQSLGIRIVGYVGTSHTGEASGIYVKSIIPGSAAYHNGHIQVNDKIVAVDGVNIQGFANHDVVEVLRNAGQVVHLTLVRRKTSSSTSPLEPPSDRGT
LNX1_2, Q8TBB1, sequence (Q8TBB1 371-470): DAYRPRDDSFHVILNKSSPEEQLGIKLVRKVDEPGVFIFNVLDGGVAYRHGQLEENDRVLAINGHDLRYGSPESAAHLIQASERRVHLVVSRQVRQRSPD

## DDASLPVSDV [PLEKHA1, Q9HB21]
[1]; [28]
  pKd: 5.22
[2]; [28]
  pKd: below the threshold
[3]; [28]
  pKd: below the threshold
[4]; [28]
  pKd: below the threshold
[5]; [28]
  pKd: below the threshold
[6]; [28]
  pKd: below the threshold
[7]; [28]
  pKd: below the threshold
[8]; [28]
  pKd: below the threshold
[9]; [28]
  pKd: below the threshold
[10]; [28]
  pKd: below the threshold
[11]; [28]
  pKd: 3.58
[12]; [28]
  pKd: below the threshold
[13]; [28]
  pKd: below the threshold
[14]; [28]
  pKd: below the threshold
[15]; [28]
  pKd: below the threshold
[16]; [28]
  pKd: below the threshold
[17]; [28]
  pKd: below the threshold
[18]; [28]
  pKd: below the threshold
[19]; [28]
  pKd: below the threshold
[20]; [28]
  pKd: 3.59
[21]; [28]
  pKd: 5.09
[22]; [28]
  pKd: below the threshold
[23]; [28]
  pKd: 4.91
[24]; [28]
  pKd: below the threshold
[25]; [28]
  pKd: below the threshold
[26]; [28]
  pKd: below the threshold
[27]; [28]
  pKd: below the threshold

## EDPRVEVTQF [SLC22A9, Q8IVM8]
[1]; [28]
  pKd: 4.23
[2]; [28]
  pKd: 4.86
[3]; [28]
  pKd: below the threshold
[4]; [28]
  pKd: below the threshold
[5]; [28]
  pKd: below the threshold
[6]; [28]
  pKd: below the threshold
[7]; [28]
  pKd: below the threshold
[8]; [28]
  pKd: below the threshold
[9]; [28]
  pKd: 5.36
[10]; [28]
  pKd: below the threshold
[11]; [28]
  pKd: 4.18
[12]; [28]
  pKd: below the threshold
[13]; [28]
  pKd: below the threshold
[14]; [28]
  pKd: below the threshold
[15]; [28]
  pKd: 4.58
[16]; [28]
  pKd: below the threshold
[17]; [28]
  pKd: below the threshold
[18]; [28]
  pKd: below the threshold
[19]; [28]
  pKd: below the threshold
[20]; [28]
  pKd: below the threshold
[21]; [28]
  pKd: 3.87
[22]; [28]
  pKd: below the threshold
[23]; [28]
  pKd: below the threshold
[24]; [28]
  pKd: below the threshold
[25]; [28]
  pKd: below the threshold
[26]; [28]
  pKd: below the threshold
[27]; [28]
  pKd: below the threshold

## QQSMSSADSTQA [SARS-Cov2-N, P0DTC9]
[1]; [29]
  pKd: below the threshold
[2]; [29]
  pKd: below the threshold
[3]; [29]
  pKd: below the threshold
[4]; [29]
  pKd: below the threshold
[5]; [29]
  pKd: below the threshold
[6]; [29]
  pKd: below the threshold
[7]; [29]
  pKd: below the threshold
[8]; [29]
  pKd: below the threshold
[9]; [29]
  pKd: below the threshold
[10]; [29]
  pKd: below the threshold
[11]; [29]
  pKd: below the threshold
[12]; [29]
  pKd: below the threshold
[13]; [29]
  pKd: below the threshold
[14]; [29]
  pKd: below the threshold
[15]; [29]
  pKd: below the threshold
[16]; [29]
  pKd: below the threshold
[17]; [29]
  pKd: below the threshold
[18]; [29]
  pKd: below the threshold
[19]; [29]
  pKd: below the threshold
[20]; [29]
  pKd: below the threshold
[21]; [29]
  pKd: below the threshold
[22]; [29]
  pKd: below the threshold
[23]; [29]
  pKd: below the threshold
[24]; [29]
  pKd: below the threshold
[25]; [29]
  pKd: below the threshold
[26]; [29]
  pKd: below the threshold
[27]; [29]
  pKd: below the threshold

## LAHVKHKEQI [AQP3, Q92482]
[1]; [28]
  pKd: below the threshold
[2]; [28]
  pKd: below the threshold
[3]; [28]
  pKd: below the threshold
[4]; [28]
  pKd: below the threshold
[5]; [28]
  pKd: below the threshold
[6]; [28]
  pKd: 3.79
[7]; [28]
  pKd: below the threshold
[8]; [28]
  pKd: below the threshold
[9]; [28]
  pKd: below the threshold
[10]; [28]
  pKd: below the threshold
[11]; [28]
  pKd: below the threshold
[12]; [28]
  pKd: below the threshold
[13]; [28]
  pKd: below the threshold
[14]; [28]
  pKd: below the threshold
[15]; [28]
  pKd: below the threshold
[16]; [28]
  pKd: below the threshold
[17]; [28]
  pKd: below the threshold
[18]; [28]
  pKd: below the threshold
[19]; [28]
  pKd: below the threshold
[20]; [28]
  pKd: below the threshold
[21]; [28]
  pKd: below the threshold
[22]; [28]
  pKd: below the threshold
[23]; [28]
  pKd: below the threshold
[24]; [28]
  pKd: below the threshold
[25]; [28]
  pKd: below the threshold
[26]; [28]
  pKd: below the threshold
[27]; [28]
  pKd: below the threshold

## ELSATVTTDC [TRIP6, Q15654]
[1]; [28]
  pKd: 3.8
[2]; [28]
  pKd: below the threshold
[3]; [28]
  pKd: below the threshold
[4]; [28]
  pKd: below the threshold
[5]; [28]
  pKd: below the threshold
[6]; [28]
  pKd: below the threshold
[7]; [28]
  pKd: below the threshold
[8]; [28]
  pKd: below the threshold
[9]; [28]
  pKd: 3.63
[10]; [28]
  pKd: below the threshold
[11]; [28]
  pKd: 4.31
[12]; [28]
  pKd: below the threshold
[13]; [28]
  pKd: below the threshold
[14]; [28]
  pKd: below the threshold
[15]; [28]
  pKd: below the threshold
[16]; [28]
  pKd: 3.91
[17]; [28]
  pKd: below the threshold
[18]; [28]
  pKd: below the threshold
[19]; [28]
  pKd: below the threshold
[20]; [28]
  pKd: below the threshold
[21]; [28]
  pKd: 4.24
[22]; [28]
  pKd: below the threshold
[23]; [28]
  pKd: 3.95
[24]; [28]
  pKd: below the threshold
[25]; [28]
  pKd: 3.88
[26]; [28]
  pKd: 3.76
[27]; [28]
  pKd: 3.59
